The text below walks through data of patent US20110212108A1, “NEUREGULIN/ERBB SIGNALING AND INTEGRIN” (THE REGENTS OF THE UNIVERSITY OF CALIFORNIA, priority 2008, published 2011).

The experiment concerns Met-1 mouse breast cancer. Kind of experiment: Met-1 mouse breast cancer transplanted to fat pad of FVB syngeneic mice. The experiment is classed as in vivo. The following applies: 200 ng/mouse/day intraperitoneally from day 5. As for the experimental part: FIG. 23. Effect of the 3KE (175-241) mutation on in vivo tumorigenesis. Top: Growth curve. […] (P<0.0001 by two way ANOVA.) Bottom: Tumor size at day 18.
In the present invention, Met-1 mouse breast cancer fragment (2×2×2 mm) was transplanted to fat pad of FVB syngeneic mice (2 per animal, 5-6 mice per group) (day 0). At day 5, intraperitoneal injection of 200 ng/mouse/day wt NRG1, 3KE, heat-denatured 3KE or vehicle (PBS) everyday were started (FIG. 23). PBS contains 0.1 mg/ml mouse serum albumin as carrier. Tumor size was measured using caliper twice a week (FIG. 23). Tumor size was calculated using V=0.4×(a×b×b) where a is the longest diameter and b is a diameter perpendicular to a. Statistical analysis was performed using Prism software package.

B1: 3KE (175-241): NRG1α (175-241) with Lys181/Lys185/Lys187 mutated to Glu, SEQ ID NO:6 (3KE, long version) (protein)
chain: GTSHLVECAEEEETFCVNGGECFMVKDLSNPSRYLCKCQPGFTGARCTENVPMKVQNQEKAEELYQK
modifications: integrin-binding site within human neuregulin, residues 175-241of human neuregulin 1alpha, long version, 3KE mutant
Consider B1, for which the “Tumor growth curve of Met-1 in FVB mice” value (P<0.0001 by two way ANOVA) is reported as “suppressed tumor growth”. Also, the “Tumor size at day 18, Met-1 in FVB mice” value (t-test) is listed as “suppressed tumor growth”.
